These results are taken from US20080004215.

The target of data set [1] is WGMDY1 (WGMDY1 fused to a 10-mer cell-penetrating peptide sequence of HIV tat-1 protein, unphosphorylated form).
Data set [2] concerns the target pWGMDY1 (WGMDY1 fused to a 10-mer cell-penetrating peptide sequence of HIV tat-1 protein, phosphorylated form).

B1: purified glutathione S-transferase (GST) fusion of the phosphatase domain of SHP2 (protein)
chain: GFWEEFETLQQQECKLLYSRKEGQRQENKNKNRYKNILPFDHTRVVLHDGDPNEPVSDYINANIIMPEFETKCNNSKPKKSYIATQGCLQNTVNDFWRMVFQENSRVIVMTTKEVERGKSKCVKYWPDEYALKEYGVMRVRNVKESAAHDYTLRELKLSKVGQGNTERTVWQYHFRTWPDHGVPSDPGGVLDFLEEVHHKQESIMDAGPVVVHCSAGIGRTGTFIVIDILIDIIREKGVDCDIDVPKTIQMVRSQRSGMVQTEAQYRFIYMAVQHYIETLQRRIEEEQKSKRKGHEYTNIKYSLADQTSGDQSPLPPCTPTPPCAEMREDSARVYENVGLMQQQKSFR
Turning to B1, the “in vitro phosphatase assay: dephosphorylation of para-nitrophenolphosphate (pN) by P, absorbance (OD) at 405 nm at the 5 minutes time point” value is listed as “Addition of pWGMDY1, but not WGMDY1, inhibited the dephosphorylation reaction” in data set [1] and “Addition of pWGMDY1, but not WGMDY1, inhibited the dephosphorylation reaction” in data set [2].
